Results: PMC13436963

B1: Drosophila Notch LNR domain fused to split firefly luciferase fragments (LNR–NLuc and LNR–CLuc) [Drosophila melanogaster] / Drosophila Notch LNR domain fused to split firefly luciferase fragments (LNR–NLuc and LNR–CLuc) … (parent)
chain 1: GSGNDRYAADLEQQRAMCDKRGCTEKQGNGICDSDCNTYACNFDGNDCSLGINPWANCTANECWNKFKNGKCNEECNNAACHYDGHDCERKLKSCDSLFDAYCQKHYGDGFCDYGCNNAECSWDGLDCENKTQSPV
chain 2: B1 chain 1

Variants of: B1
Experiment: split-luciferase complementation assay
Details: with Drosophila Notch LNR domain fused to split firefly luciferase fragments (LNR–NLuc and LNR–CLuc) [Drosophila melanogaster], S2 cells, n=5, parent: 1, read off a plot

ratio to parent (bar labelled 'F1563A + WT' (N-Luc / C-Luc)) | ratio to parent (bar labelled 'WT + F1563A' (N-Luc / C-Luc)) | ratio to parent (bar labelled 'H1570A + WT' (N-Luc / C-Luc)) | ratio to parent (bar labelled 'WT + H1570A' (N-Luc / C-Luc)) | Variant
0.97 | 1.1 | – | – | chain 1 F99A
– | – | 1 | 0.94 | chain 1 H106A
